Where a chain is given by its changes, count along the chain named.
Tests used:
Settings in all cases: protein: recombinant; chain copies: 2; label: Alexa Fluor647 (EMSA); biotin (QCM); blunt; self-complementary palindrome, 2 copies
PZ V316A = biological target: T1, PZ V316A (Vaucheria frigida? (VfAUREO1), UniProt A8QW55 113-348, C162S;C182S;V316A); experiment: EMSA; QCM; dark state; altered EC50; EMSA: 5% polyacrylamide gel, 25 C, dark or blue light 5 W/m2; QCM: 27 MHz, QCM buffer, 25 C; buffer, salt and pH not given (earlier papers cited); EC50 values (nM, per monomer) only in figures
T1 sequence: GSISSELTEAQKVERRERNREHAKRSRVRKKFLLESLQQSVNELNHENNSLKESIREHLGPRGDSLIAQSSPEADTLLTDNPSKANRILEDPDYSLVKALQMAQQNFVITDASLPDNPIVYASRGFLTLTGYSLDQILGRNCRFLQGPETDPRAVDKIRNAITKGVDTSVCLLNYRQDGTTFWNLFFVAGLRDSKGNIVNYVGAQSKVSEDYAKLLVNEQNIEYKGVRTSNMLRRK

PZ V314A = biological target: T2, PZ V314A (Vaucheria frigida? (VfAUREO1), UniProt A8QW55 113-348, C162S;C182S;V314A); experiment: as above
T2 sequence: T1 sequence with V202A, A204V

PZ L212A = biological target: T3, PZ L212A (Vaucheria frigida? (VfAUREO1), UniProt A8QW55 113-348, C162S;C182S;L212A); experiment: EMSA; QCM; dark state; EC50 similar to wtPZ; EMSA: 5% polyacrylamide gel, 25 C, dark or blue light 5 W/m2; QCM: 27 MHz, QCM buffer, 25 C; buffer, salt and pH not given (earlier papers cited); EC50 values (nM, per monomer) only in figures
T3 sequence: T1 sequence with L100A, A204V

PZ N218A = biological target: T4, PZ N218A (Vaucheria frigida? (VfAUREO1), UniProt A8QW55 113-348, C162S;C182S;N218A); experiment: as above
T4 sequence: T1 sequence with N106A, A204V

Measured: binding result

B1: dsApo (dsDNA)
DNA 1: GCTGTCTGACGTCAGACAGC
DNA 2: GCTGTCTGACGTCAGACAGC
binds: all assays above

— publication PMC8184817, “Transmission of light signals from the light-oxygen-voltage core via the hydrophobic region of the β-sheet surface in aureochrome-1” (Scientific Reports, 2021)
